B1: farletuzumab-IgG1 (antibody, V domains shown)
VH: EVQLVESGGGVVQPGRSLRLSCSASGFTFSGYGLSWVRQAPGKGLEWVAMISSGGSYTYYADSVKGRFAISRDNAKNTLFLQMDSLRPEDTGVYFCARHGDDPAWFAYWGQGTPVTVSS
VL: DIQLTQSPSSLSASVGDRVTITCSVSSSISSNNLHWYQQKPGKAPKPWIYGTSNLASGVPSRFSGSGSGTDYTFTISSLQPEDIATYYCQQWSSYPYMYTFGQGTKVEIK
notes: IgG1; source: CHO-S, transfected, purified (protein A)
B2: farletuzumab-FuG1 (antibody, V domains shown)
VH: EVQLVESGGGVVQPGRSLRLSCSASGFTFSGYGLSWVRQAPGKGLEWVAMISSGGSYTYYADSVKGRFAISRDNAKNTLFLQMDSLRPEDTGVYFCARHGDDPAWFAYWGQGTPVTVSS
VL: DIQLTQSPSSLSASVGDRVTITCSVSSSISSNNLHWYQQKPGKAPKPWIYGTSNLASGVPSRFSGSGSGTDYTFTISSLQPEDIATYYCQQWSSYPYMYTFGQGTKVEIK
notes: also called farletuzumab-FuGi

Target: T1, IgG4-Fc tagged rFOLR1 (Homo sapiens (assumed), UniProt P15328)
T1 construct: also called recombinant IgG4-Fc FOLR1; folate receptor alpha-1; source: CHO-S, transfected, purified (protein A)
Assay: ELISA; IgG4-Fc tagged rFOLR1 (2 ug/mL) coated on 96-well plates overnight; antibodies 50 nM to 0.048 nM, 1 h at 37 C; detected with HRP anti-human IgG1
Conditions: both partners purified

Binder	binding result
B1	binds
B2	binds

Reference: article PMC8826744 (Microbiology Spectrum, 2022)
